The chains are these.
B1: Peroxisomal biogenesis factor 3 (Homo sapiens), P56589 (parent)
chain: MLRSVWNFLKRHKKKCIFLGTVLGGVYILGKYGQKKIREIQEREAAEYIAQARRQYHFESNQRTCNMTVLSMLPTLREALMQQLNSESLTALLKNRPSNKLEIWEDLKIISFTRSTVAVYSTCMLVVLLRVQLNIIGGYIYLDNAAVGKNGTTILAPPDVQQQYLSSIQHLLGDGLTELITVIKQAVQKVLGSVSLKHSLSLLDLEQKLKEIRNLVEQHKSSSWINKDGSKPLLCHYMMPDEETPLAVQACGLSPRDITTIKLLNETRDMLESPDFSTVLNTCLNRGFSRLLDNMAEFFRPTEQDLQHGNSMNSLSSVSLPLAKIIPIVNGQIHSVCSETPSHFVQDLLTMEQVKDFAANVYEAFSTPQQLEK
partner: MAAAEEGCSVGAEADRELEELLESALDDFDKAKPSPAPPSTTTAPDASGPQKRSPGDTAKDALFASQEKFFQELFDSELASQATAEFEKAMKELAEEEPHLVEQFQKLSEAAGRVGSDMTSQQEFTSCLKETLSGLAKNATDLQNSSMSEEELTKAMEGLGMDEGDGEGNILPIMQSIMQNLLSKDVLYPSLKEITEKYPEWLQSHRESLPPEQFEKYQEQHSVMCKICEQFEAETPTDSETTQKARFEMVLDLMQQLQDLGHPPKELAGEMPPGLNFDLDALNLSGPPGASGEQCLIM
B2: Actin nucleation-promoting factor WAS (Homo sapiens), P42768 (parent)
chain: MSGGPMGGRPGGRGAPAVQQNIPSTLLQDHENQRLFEMLGRKCLTLATAVVQLYLALPPGAEHWTKEHCGAVCFVKDNPQKSYFIRLYGLQAGRLLWEQELYSQLVYSTPTPFFHTFAGDDCQAGLNFADEDEAQAFRALVQEKIQKRNQRQSGDRRQLPPPPTPANEERRGGLPPLPLHPGGDQGGPPVGPLSLGLATVDIQNPDITSSRYRGLPAPGPSPADKKRSGKKKISKADIGAPSGFKHVSHVGWDPQNGFDVNNLDPDLRSLFSRAGISEAQLTDAETSKLIYDFIEDQGGLEAVRQEMRRQEPLPPPPPPSRGGNQLPRPPIVGGNKGRSGPLPPVPLGIAPPPPTPRGPPPPGRGGPPPPPPPATGRSGPLPPPPPGAGGPPMPPPPPPPPPPPSSGNGPAPPPLPPALVPAGGLAPGGGRGALLDQIRQGIQLNKTPGAPESSALQPPPQSSEGLVGALMHVMQKRSRAIHSSDEGEDQAGDEDEDDEWDD
B3: Emerin (Homo sapiens), P50402 (parent)
chain: MDNYADLSDTELTTLLRRYNIPHGPVVGSTRRLYEKKIFEYETQRRRLSPPSSSAASSYSFSDLNSTRGDADMYDLPKKEDALLYQSKGYNDDYYEESYFTTRTYGEPESAGPSRAVRQSVTSFPDADAFHHQVHDDDLLSSSEEECKDRERPMYGRDSAYQSITHYRPVSASRSSLDLSYYPTSSSTSFMSSSSSSSSWLTRRAIRPENRAPGAGLGQDRQVPLWGQLLLFLVFVIVLFFIYHFMQAEEGNPF
partner: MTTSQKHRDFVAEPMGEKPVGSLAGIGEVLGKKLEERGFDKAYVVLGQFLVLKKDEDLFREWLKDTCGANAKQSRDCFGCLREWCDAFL
B4: DNA mismatch repair protein Mlh1 (Homo sapiens), P40692 (parent)
chain: MSFVAGVIRRLDETVVNRIAAGEVIQRPANAIKEMIENCLDAKSTSIQVIVKEGGLKLIQIQDNGTGIRKEDLDIVCERFTTSKLQSFEDLASISTYGFRGEALASISHVAHVTITTKTADGKCAYRASYSDGKLKAPPKPCAGNQGTQITVEDLFYNIATRRKALKNPSEEYGKILEVVGRYSVHNAGISFSVKKQGETVADVRTLPNASTVDNIRSIFGNAVSRELIEIGCEDKTLAFKMNGYISNANYSVKKCIFLLFINHRLVESTSLRKAIETVYAAYLPKNTHPFLYLSLEISPQNVDVNVHPTKHEVHFLHEESILERVQQHIESKLLGSNSSRMYFTQTLLPGLAGPSGEMVKSTTSLTSSSTSGSSDKVYAHQMVRTDSREQKLDAFLQPLSKPLSSQPQAIVTEDKTDISSGRARQQDEEMLELPAPAEVAAKNQSLEGDTTKGTSEMSEKRGPTSSNPRKRHREDSDVEMVEDDSRKEMTAACTPRRRIINLTSVLSLQEEINEQGHEVLREMLHNHSFVGCVNPQWALAQHQTKLYLLNTTKLSEELFYQILIYDFANFGVLRLSEPAPLFDLAMLALDSPESGWTEEDGPKEGLAEYIVEFLKKKAEMLADYFSLEIDEEGNLIGLPLLIDNYVPPLEGLPIFILRLATEVNWDEEKECFESLSKECAMFYSIRKQYISEESTLSGQQSEVPGSIPNSWKWTVEHIVYKALRSHILPPKHFTEDGNILQLANLPDLYKVFERC
partner: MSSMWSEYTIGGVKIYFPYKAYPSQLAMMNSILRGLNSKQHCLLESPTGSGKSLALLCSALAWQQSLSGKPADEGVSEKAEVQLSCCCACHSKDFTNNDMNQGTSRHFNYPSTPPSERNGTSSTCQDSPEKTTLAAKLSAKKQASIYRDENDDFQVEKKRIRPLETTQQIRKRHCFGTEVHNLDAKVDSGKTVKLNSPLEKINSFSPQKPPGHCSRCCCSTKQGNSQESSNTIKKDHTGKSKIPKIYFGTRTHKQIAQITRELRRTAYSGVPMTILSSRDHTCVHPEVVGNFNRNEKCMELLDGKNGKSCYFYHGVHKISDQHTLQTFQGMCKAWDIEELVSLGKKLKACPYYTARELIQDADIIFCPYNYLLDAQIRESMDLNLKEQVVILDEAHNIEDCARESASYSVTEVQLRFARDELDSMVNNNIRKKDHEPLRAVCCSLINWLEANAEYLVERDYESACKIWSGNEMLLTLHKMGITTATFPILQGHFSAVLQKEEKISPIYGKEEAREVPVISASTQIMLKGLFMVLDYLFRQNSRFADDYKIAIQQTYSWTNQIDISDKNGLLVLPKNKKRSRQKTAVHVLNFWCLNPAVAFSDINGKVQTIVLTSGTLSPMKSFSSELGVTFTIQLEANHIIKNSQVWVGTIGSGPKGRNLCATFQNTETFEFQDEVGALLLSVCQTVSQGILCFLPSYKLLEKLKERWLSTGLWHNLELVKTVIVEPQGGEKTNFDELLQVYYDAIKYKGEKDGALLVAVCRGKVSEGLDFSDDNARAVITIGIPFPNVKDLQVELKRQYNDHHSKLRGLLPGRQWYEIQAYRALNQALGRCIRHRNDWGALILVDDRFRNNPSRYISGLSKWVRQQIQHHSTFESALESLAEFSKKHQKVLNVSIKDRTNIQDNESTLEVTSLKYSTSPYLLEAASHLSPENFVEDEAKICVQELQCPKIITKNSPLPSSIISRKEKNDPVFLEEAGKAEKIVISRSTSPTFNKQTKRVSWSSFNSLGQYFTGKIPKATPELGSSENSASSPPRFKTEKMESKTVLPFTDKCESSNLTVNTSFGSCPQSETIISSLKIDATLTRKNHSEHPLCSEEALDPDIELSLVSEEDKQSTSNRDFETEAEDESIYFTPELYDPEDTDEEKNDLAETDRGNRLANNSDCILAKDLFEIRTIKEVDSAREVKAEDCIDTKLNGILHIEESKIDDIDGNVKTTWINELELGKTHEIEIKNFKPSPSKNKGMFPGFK
B5: Cyclin-dependent kinase 4 inhibitor C (Homo sapiens), P42773 (parent)
chain: MAEPWGNELASAAARGDLEQLTSLLQNNVNVNAQNGFGRTALQVMKLGNPEIARRLLLRGANPDLKDRTGFAVIHDAARAGFLDTLQTLLEFQADVNIEDNEGNLPLHLAAKEGHLRVVEFLVKHTASNVGHRNHKGDTACDLARLYGRNEVVSLMQANGAGGATNLQ
B6: DNA mismatch repair protein Mlh1 (Homo sapiens), P40692 (parent)
chain: B4 chain
partner: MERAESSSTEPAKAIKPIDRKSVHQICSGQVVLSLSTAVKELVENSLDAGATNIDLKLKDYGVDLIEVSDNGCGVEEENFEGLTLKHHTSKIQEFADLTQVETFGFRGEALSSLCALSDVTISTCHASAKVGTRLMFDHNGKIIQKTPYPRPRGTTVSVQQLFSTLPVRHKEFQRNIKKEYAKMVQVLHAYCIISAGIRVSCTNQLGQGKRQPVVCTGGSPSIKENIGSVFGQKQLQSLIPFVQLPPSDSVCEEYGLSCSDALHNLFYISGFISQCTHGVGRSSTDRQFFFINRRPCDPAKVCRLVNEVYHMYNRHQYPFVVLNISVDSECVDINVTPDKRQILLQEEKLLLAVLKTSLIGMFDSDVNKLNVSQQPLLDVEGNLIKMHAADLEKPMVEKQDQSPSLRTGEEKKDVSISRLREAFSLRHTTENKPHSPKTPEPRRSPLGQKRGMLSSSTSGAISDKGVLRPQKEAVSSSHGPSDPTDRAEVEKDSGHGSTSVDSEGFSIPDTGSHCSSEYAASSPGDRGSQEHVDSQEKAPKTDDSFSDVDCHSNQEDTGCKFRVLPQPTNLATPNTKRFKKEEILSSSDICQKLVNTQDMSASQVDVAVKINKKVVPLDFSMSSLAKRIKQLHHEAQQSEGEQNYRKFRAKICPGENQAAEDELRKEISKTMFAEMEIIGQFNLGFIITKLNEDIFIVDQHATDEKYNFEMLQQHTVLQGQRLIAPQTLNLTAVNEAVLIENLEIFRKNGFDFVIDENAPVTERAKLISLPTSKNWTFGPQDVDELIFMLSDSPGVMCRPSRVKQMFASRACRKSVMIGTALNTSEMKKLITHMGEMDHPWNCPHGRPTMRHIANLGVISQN
B7: ADP-ribosylation factor-like protein 2-binding protein (Homo sapiens), Q9Y2Y0 (parent)
chain: MDALEGESFALSFSSASDAEFDAVVGYLEDIIMDDEFQLLQRNFMDKYYLEFEDTEENKLIYTPIFNEYISLVEKYIEEQLLQRIPEFNMAAFTTTLQHHKDEVAGDIFDMLLTFTDFLAFKEMFLDYRAEKEGRGLDLSSGLVVTSLCKSSSLPASQNNLRH

The variants in one assay derive from B1. Particulars: with pex19_human PEX19, P40855.
As for D347Y, the “effect of a mutation on the interaction” value is recorded as “with no effect”.

The variants in another assay derive from B2. Particulars: with cdc42_human CDC42, P60953.
Sequence of cdc42_human CDC42, P60953 (P60953 whole entry, looked up): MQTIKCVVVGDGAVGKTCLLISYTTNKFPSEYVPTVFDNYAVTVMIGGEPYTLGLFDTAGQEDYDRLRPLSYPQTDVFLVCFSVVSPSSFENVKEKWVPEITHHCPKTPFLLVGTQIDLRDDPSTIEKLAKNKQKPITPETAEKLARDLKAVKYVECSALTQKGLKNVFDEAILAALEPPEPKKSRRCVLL
Take I294T: the “effect of a mutation on the interaction” value is listed as “disrupting interaction strength”.
For the variant E131K, the “effect of a mutation on the interaction” value is reported as “with no effect”.

Variants of B3 are the subject of a further assay. Particulars: with baf_human BANF1, O75531.
As for S54F, the “effect of a mutation on the interaction” value is listed as “with no effect”.
Turning to P183T, the “effect of a mutation on the interaction” value is recorded as “with no effect”.
The same measure, in the same setting: the value for D72V was “with no effect”.

In another assay the parent is B4. To be noted: with fancj_human BRIP1, Q9BX63.
With I107R, the “effect of a mutation on the interaction” value is “with no effect”.

In a further assay the parent is B5. Particulars: with cdk6_human CDK6, Q00534.
Sequence of cdk6_human CDK6, Q00534 (Q00534 whole entry): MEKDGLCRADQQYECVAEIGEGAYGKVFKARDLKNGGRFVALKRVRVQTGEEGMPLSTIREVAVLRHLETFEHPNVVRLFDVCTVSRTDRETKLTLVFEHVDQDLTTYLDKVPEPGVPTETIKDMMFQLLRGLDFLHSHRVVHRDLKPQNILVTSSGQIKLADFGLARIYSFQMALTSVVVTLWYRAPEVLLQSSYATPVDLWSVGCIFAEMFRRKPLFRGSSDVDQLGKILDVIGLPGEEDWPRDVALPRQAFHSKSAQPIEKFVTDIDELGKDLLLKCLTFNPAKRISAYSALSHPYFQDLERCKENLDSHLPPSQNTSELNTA
Regarding V31L, the “effect of a mutation on the interaction” value is on record as “with no effect”.

In a further assay the parent is B6. Particulars: with pms2_human PMS2, P54278.
On to I107R, for which the “effect of a mutation on the interaction” value is “disrupting interaction strength”.

The variants in a further assay derive from B7. To be noted: with arl2_human ARL2, P36404.
Sequence of arl2_human ARL2, P36404 (P36404 whole entry): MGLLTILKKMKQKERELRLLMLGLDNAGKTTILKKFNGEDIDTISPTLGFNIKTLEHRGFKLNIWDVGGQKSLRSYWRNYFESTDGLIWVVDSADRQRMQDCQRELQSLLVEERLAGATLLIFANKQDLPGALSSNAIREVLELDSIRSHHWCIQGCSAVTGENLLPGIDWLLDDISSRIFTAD
M45R: the “effect of a mutation on the interaction” value was “disrupting interaction strength”.

The record behind these values is IntAct's records for PubMed 25502805.
